Measured values as given in CN111748032A (JIANGSU PROVINCIAL CENTER FOR DISEASE CONTROL AND …, dated 2020).
Substitutions are numbered along the chain they refer to.

B1: JS13 (antibody, V domains shown)
VH: QVQLVQSGAEVKKPGSSVKVSCKASGGTFSSYAISWVRQAPGQGLEWMGGIIPIFGTANYAQKFQGRVTITADESTSTAYMELSSLRSEDTAVYYCARGGWVICSSTSCYTKYSYYGMDVWGQGTTVTVSS
VL: QSVLTQPPSVSAAPGQKVTISCSGSSSNIGNNYVSWYQQLPGTAPKLLIYDNNKRPSGIPDRFSGSKSGTSATLGITGLQTGDEADYYCGTWDSSLIARLFGGGTKLTVL
B2: JS05 (antibody, V domains shown)
VH: EVQLLESGGGVVQPGRSLRLSCAASGFIFSSYGMHWVRQAPGKGLEWVAVIWYDGSNKYYADSVKGRFTISRDNSKNTLYLQMNSLRAEDTAVYYCARDLRGPTGWTFDYWGQGTLVTVSS
VL: ENVLTQSPATLSLSPGERATLSCRASQSVSNYLAWYQQRPGQAPRLLIYDSSNRATGIPARFSGSGSGTDFTLTISSLEPEDFAVYYCQHRSNWKITFGQGTRLEIK
B3: JS12 (antibody, V domains shown)
VH: EVQLLESGGGVVQPGRSLRLSCAASGFTFSSYGMHWVRQAPGKGLEWVAVIWYDGSNKYYADSVKGRFTISRDNSKNTLYLQMNSLRAEDTAVYYCARDGSGSYYWGSLDYWGQGTLVTVSS
VL: B2 VL with N31S, R39K, D50G, S51A, H90Q, K95P, I96W, R103K, L104V
B4: JS14 (antibody, V domains shown)
VH: B3 VH
VL: not shown
B5: JS01 (antibody, V domains shown)
VH: QVQLVESGAEVKKPGSSVKVSCKASGGTFSSYAISWVRQAPGQGLEWMGGIIPIFGTANYAQKFQGRVTITADESTSTAYMELSSLRSEDTAVYYCARGGWRSSGYHDYSYYGMDVWGQGTTVTVSS
VL: not shown

Target: 重组SARS-CoV2核蛋白(NP) (SARS-CoV-2, UniProt P0DTC9 1-419)
Assay: double-antibody sandwich lateral flow strip, paired with JS08, recombinant NP

Binder	检测限 (detection limit) [ng/mL]
B1	< 2
B2	< 2
B3	< 2
B4	< 2
B5	< 2
